Our source for the Kd values is patent US20260217862A1 (NBIOS, published 2026).

This test deals with T1, Human Integrin αVβ3 (human, UniProt P06756 31-992; P05106 27-718).
T1 construct: Commercial heterodimer from ACROBiosystems; No catalogue number or construct limits are printed; also called Integrin aVß3; integrin (ITG)
Put plainly: ELISA, CtsZ coated 200 ng/well, integrin αVβ3 titrated from 200 nM in 1/3 steps, detected with biotinylated anti-integrin alpha V antibody and streptavidin-HRP. The method, then:
After coating 1×PBS (pH 7.4) containing 200 ng of CtsZ in each well of a 96-well high-binding plate at 4° C. for 16 hours, followed by washing twice with a washing buffer (20 mM Tris-HCl, 150 mM NaCl, 1 mM MnCl₂, 0.05% Tween-20), blocking was performed at room temperature for 2 hours using a blocking buffer (washing buffer containing 3% BSA). After washing twice with a washing buffer, binding was performed at room temperature for 2 hours using a dilution buffer (washing buffer containing 0.5% BSA) containing 200 nM, ⅓ eq. integrin αVβ3. After washing 4 times with a washing buffer, biotinylated anti-human integrin alpha V antibody (diluted to 1:100 with dilution buffer) was treated at room temperature for 1 hour. After washing 4 times with a washing buffer, HRP-conjugated streptavidin was treated at room temperature for 1 hour. After washing 4 times with a washing buffer, followed by addition of ultra TBM matrix, reaction was performed for 2 minutes and the reaction was stopped by adding 2 M H₂SO₄. KD values were calculated from the absorbance at 450 nm using the Prism7 software.
Because CtsZ has an RGD motif binding to integrin, particularly integrin αVβ3, in the pro-region, it was investigated whether the purified CtsZ was in active form by measuring binding affinity for integrin αVβ3 purchased from ACROBiosystems.
A general note: An ELISA detects its analyte on a solid surface through an enzyme-linked reagent.

T1 sequence (P06756 31-992 limits assumed, chain 1 of 2): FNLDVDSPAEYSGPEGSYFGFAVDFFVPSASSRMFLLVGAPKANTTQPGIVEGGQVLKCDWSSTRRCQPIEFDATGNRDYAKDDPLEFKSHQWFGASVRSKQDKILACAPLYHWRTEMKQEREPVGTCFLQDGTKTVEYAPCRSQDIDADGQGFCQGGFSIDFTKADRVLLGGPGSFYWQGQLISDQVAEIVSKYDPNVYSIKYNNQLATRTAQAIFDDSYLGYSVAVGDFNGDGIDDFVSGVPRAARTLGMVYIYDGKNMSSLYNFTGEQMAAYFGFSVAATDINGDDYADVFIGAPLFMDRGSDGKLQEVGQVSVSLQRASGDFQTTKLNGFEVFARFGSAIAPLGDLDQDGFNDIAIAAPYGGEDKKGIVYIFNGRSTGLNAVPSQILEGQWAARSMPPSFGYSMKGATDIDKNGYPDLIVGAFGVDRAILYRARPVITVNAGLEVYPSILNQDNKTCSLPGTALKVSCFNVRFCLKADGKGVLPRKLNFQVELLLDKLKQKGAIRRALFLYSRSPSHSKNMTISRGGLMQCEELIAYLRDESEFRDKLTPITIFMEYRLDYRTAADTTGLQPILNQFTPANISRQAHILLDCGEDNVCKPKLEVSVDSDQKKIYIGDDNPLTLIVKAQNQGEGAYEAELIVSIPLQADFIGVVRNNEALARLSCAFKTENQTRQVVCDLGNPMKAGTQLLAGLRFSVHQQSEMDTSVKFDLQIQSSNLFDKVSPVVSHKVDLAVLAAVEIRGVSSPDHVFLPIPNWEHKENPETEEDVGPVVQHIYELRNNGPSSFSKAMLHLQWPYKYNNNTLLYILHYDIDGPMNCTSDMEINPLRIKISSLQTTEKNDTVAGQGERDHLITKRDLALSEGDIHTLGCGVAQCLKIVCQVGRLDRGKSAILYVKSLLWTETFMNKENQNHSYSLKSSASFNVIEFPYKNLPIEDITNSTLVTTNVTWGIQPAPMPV
T1 sequence (P05106 27-718 limits assumed, chain 2 of 2): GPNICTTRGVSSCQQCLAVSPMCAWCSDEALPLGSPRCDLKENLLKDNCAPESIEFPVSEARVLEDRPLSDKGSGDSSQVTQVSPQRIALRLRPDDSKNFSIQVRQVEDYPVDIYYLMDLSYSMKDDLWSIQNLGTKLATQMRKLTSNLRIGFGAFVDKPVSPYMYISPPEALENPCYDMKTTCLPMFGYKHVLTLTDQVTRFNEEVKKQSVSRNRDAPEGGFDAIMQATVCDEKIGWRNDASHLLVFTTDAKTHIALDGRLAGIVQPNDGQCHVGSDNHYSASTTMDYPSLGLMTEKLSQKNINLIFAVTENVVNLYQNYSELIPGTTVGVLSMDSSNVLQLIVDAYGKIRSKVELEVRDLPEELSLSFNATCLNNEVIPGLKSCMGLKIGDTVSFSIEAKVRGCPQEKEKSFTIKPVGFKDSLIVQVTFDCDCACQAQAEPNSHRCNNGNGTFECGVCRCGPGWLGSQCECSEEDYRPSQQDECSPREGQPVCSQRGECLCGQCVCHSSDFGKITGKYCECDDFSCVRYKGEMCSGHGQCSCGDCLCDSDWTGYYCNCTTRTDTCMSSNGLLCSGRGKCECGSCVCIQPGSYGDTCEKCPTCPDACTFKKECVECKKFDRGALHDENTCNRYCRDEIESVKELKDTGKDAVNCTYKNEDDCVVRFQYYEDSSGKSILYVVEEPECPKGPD

B1: recombinant human cathepsin Z with C-terminal 6x-His tag (enzyme)
chain: not shown
notes: Secreted from Expi-293F cells and purified on Ni-NTA; Glycosylated, about 37 kDa on SDS-PAGE against 33 kDa predicted; also called CtsZ; purified CtsZ
Broadly, the Kd is a measure of binding affinity in units of concentration. A high value points to a looser complex. As for B1, the Kd is around 137 nM.
